These are literature values, as cited in PMC9558312.

Among the targets are Asp48 (UniProt position 66, TNRNTDGSTDY); Asp52 (UniProt position 70, TDGSTDYGILQ); Asp18 (UniProt position 36, KRHGLDNYRGY); Glu35 (UniProt position 53, CAAKFESNFNT); Asp87 (UniProt position 105, ALLSSDITASV); Asp101 (UniProt position 119, KKIVSDGNGMN); Asp66 (UniProt position 84, RWWCNDGRTPG); Asp119 (UniProt position 137, RCKGTDVQAWI); Glu7 (UniProt position 25, VFGRCELAAAM); His4 (UniProt position 25, YTLKCHNTQLP); Asp42 (UniProt position 63, KRGCADNCPKN); Asp59 (UniProt position 80, VCCSTDKCN--); Glu17 (UniProt position 38, YKTCPEGKNLC).

What all share (test): NMR

The term pKa denotes the negative logarithm of the acid dissociation constant. For the substance “Hen egg white lysozyme (HEWL, lysozyme C) (Gallus gallus)”, the pKa was 1.4 with Asp48; 3.6 in the series with Asp52; 2.8 in the series with Asp18; 6.1 with Glu35; 2.2 with Asp87; 4.5 with Asp101. Moreover, the pKa with Asp66 was 1.2; with Asp119 it was 3.5; in the series with Glu7, 2.6.
For “Cardiotoxin V (cytotoxin 5, CTX A5) (Naja naja atra (Naja atra, Taiwan cobra))”, the pKa is on record as 5.5 in the series with His4, 3.2 in the series with Asp42, less than 2 in the series with Asp59 and 4 with Glu17.
